This assay addresses T1, 乙型肝炎表面抗原(HBsAg) (Hepatitis B virus).
T1 chain: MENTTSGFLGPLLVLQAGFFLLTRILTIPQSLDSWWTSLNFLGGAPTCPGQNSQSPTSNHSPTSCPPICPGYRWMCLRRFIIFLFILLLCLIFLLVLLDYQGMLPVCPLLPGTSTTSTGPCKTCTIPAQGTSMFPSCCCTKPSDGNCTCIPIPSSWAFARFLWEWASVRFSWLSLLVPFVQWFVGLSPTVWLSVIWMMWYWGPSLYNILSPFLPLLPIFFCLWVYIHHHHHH
The assay can be described thus: ELISA affinity determination on HBsAg. For orientation: ELISA stands for enzyme-linked immunosorbent assay.

B1: C4D2-BsAb (bispecific antibody, human IgG1, kappa)
VH: not shown
VL: DIVMTQSPLSLSVTPGEPASISCRSSQSLLHRSGNNYLDWYLQKPGHSPQLLIYVGSNRASGVPDRFSGSGSGTEYTLKISRVEAEDVGVYYCMQALQTPRTFGQGTKLEIKRTVAAPSVFIFPPELVMTQSPSSLSASVGDRVTITCRASQGIYNSIAWYQQKPGKAPKLLLYSTSTLLSGVPSRFSGSGSGTDYTLTITNLQPEDFATYYCQQYFVTPETFGQGTKVEIKRTVAAPSVFIFPPSDEQLKSGTASVVCLLNNFYPREAKVQWKVDNALQSGNSQESVTEQDSKDSTYSLSSTLTLSKADYEKHKVYACEVTHQGLSSPVTKSFNRGEC
notes: Dual-variable-domain format; also called 双特异性抗体C4D2-BsAb
Regarding B1, the Kd (commonly the free concentration of one partner at which half of the binding sites on the other are occupied at equilibrium, for simple one-to-one binding) is 3.88 nM.

(Values after CN104592390A (SHANGHAI ZHANGJIANG BIOTECHNOLOGY CO LTD; SHANGHAI HAISI …, dated 2015).)
